Experimental data from article PMC3396760.

Assay: in-culture cell surface labelling with cell-impermeable BG-682
Details: glycan lost; control: wild type SNAP-Crb3a

B1: Crumbs3a (Crb3a): N36D (protein)
parent chain: MANPGLGLLLALGLPFLLARWGRAWGQIQTTSANENSTVLPSSTSSSSDGNLRPEAITAIIVVFSLLAALLLAVGLALLVRKLREKRQTEGTYRPSSEEQVGARVPPTPNLKLPPEERLI
In the case of B1, the localisation_or_trafficking is reported as “no change”.
